Measurements published in patent US20240158497A1 (published 2024).

T1: mutant human LEPR (Y1141F) on HEK293.STAT3.Luc.GP130.hLEPR (Y1141F) cells (human, UniProt P48357 22-1165)
T1 sequence (looked up): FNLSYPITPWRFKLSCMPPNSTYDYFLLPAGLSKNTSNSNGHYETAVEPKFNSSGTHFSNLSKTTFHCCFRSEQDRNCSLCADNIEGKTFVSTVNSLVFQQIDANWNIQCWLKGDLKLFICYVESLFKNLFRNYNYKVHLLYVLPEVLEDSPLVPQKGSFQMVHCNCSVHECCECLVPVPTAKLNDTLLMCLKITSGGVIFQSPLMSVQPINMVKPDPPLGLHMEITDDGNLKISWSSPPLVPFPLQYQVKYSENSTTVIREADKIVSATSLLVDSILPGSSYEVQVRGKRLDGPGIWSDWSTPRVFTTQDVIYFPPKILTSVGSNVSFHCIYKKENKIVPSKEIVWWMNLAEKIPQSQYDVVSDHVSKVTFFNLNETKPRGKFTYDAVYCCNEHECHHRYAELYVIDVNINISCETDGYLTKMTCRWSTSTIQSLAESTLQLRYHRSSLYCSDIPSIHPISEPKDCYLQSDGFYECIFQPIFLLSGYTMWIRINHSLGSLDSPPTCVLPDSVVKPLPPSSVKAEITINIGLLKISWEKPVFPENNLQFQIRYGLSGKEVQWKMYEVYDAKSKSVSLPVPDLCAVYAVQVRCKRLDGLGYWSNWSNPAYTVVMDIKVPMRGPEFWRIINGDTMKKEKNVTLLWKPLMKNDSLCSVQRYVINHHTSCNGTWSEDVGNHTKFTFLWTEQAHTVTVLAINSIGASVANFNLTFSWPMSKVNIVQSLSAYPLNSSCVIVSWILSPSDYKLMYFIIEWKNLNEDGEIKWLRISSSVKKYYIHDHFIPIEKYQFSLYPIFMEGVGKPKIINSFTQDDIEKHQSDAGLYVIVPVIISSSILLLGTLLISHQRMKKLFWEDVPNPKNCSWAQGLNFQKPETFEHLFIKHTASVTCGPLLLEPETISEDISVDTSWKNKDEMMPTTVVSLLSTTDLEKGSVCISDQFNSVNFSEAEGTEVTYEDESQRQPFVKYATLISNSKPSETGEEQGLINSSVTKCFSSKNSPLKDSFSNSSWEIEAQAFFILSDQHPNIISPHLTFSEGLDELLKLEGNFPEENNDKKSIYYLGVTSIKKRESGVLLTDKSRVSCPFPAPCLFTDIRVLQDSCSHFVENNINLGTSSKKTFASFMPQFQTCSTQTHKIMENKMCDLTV

T2: Macaca Fascicularis GP130 extracellular domain expressed with a C-terminal myc-myc-hexahistidine tag (Macaca fascicularis, UniProt P40189 23-619 (human entry))
T2 construct: also called mfGP130-MMH; mfGP130-mmH
T2 chain: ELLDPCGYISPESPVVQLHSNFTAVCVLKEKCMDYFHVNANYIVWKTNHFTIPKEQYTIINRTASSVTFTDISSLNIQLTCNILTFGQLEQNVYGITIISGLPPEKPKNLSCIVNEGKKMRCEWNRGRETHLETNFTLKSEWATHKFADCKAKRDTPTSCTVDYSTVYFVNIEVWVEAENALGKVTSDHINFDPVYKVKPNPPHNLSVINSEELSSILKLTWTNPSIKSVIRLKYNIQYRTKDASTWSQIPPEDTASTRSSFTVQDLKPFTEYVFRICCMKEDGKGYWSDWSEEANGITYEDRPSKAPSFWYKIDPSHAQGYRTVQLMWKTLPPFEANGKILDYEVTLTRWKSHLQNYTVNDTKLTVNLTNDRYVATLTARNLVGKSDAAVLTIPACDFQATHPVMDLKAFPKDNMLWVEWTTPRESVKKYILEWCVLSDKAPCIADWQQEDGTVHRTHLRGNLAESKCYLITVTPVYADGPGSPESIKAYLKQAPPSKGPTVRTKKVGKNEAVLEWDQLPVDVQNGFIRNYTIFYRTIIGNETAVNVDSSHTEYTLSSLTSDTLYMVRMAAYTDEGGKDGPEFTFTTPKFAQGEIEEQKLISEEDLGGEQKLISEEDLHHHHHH


How the values were obtained:
[1] = target: T1, mutant human LEPR (Y1141F) on …; test: cell-based or functional assay
[2] = target: T3, human GP130 extracellular domain expressed with a C-terminal myc-myc-hexahistidine tag (human, UniProt P40189 23-619); test: SPR, bsAb captured by anti-hFc, 25C
T3 construct: also called hGP130-MMH; hGP130-mmH
How it was run: (§1)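 Anti-hFc-captured bispecific antibodies received 3-fold serial dilutions of LEPR or GP130 (100 nM–3.7 nM) in HBS-ET, pH 7.4, injected for 4 min with 10 min dissociation at 25 °C or 37 °C. ka and kd came from a 1:1 binding model with mass transport limitation, and KD and t½ were calculated from these rate constants.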

[3] = target: T2, Macaca Fascicularis GP130 extracellular …; test: SPR, bsAb captured by anti-hFc, 25C
How it was run: as §1

| EC50 (M), STAT3-luciferase activation of HEK293.STAT3.Luc.GP130.hLEPR (Y1141F) cells, 10 nM leptin [1] [M] | 100 nM hGP130-MMH Bound (RU) [2] [RU] | Kd [2] [nM] | koff [2] [s⁻¹] | kon [2] [M⁻¹ s⁻¹] | t½ [2] [min] | 100 nM mfGP130-MMH Bound (RU) [3] [RU] | Kd [3] [nM] | koff [3] [s⁻¹] | kon [3] [M⁻¹ s⁻¹] | t½ [3] [min] | Binder |
| --- | --- | --- | --- | --- | --- | --- | --- | --- | --- | --- | --- |
| 2.11e-09 | 12 | 140 | 0.00426 | 30300 | 2.7 | 21 | 104 | 0.00305 | 29400 | 3.8 | bsAb21236D (bispecific antibody, V domains shown, LEPR x GP130 bispecific with common light chain; also called H4H21236D; bsAb21236 (LEPR × GP130)) VH 1: QVQLQESGPGLVKPSQTLSLTCTVSGGSISSGGDYWSWIRQLPGKGLEWIGYIYYSGSAYYNPSLKSRGTISIDTSKNQFSLKLTSVTAADTAVYFCVKLRFLEWFLGGWFGPWGQGTLVTVSS VH 2: QVQLVESGGGLVKPGGSLRLSCAASGFTFSDYYMTWIRQTPGKGLDWVSYISSSGTNKYNADSVKGRFTISRDNAKNSLYLQMNSLRAEDTAVYYCVRDPPWGMDVWGQGTTVTVSS VL: not shown |
| 2.46e-09 | 17 | 55.2 | 0.00274 | 49600 | 4 | 18 | 53.4 | 0.00213 | 39800 | 5 | bsAb21237D (bispecific antibody, V domains shown, LEPR x GP130 bispecific with common light chain; also called H4H21237D; bsAb21237 (LEPR × GP130)) VH 1: EVQLVESGGGLVQPGGSLRLSCAASGFTFSNYGMTWVRQAPGKGLEWVSAITGGGGSTYYSNSVKGRFTISRDNSKNTVYLRMNSVRAEDTAVYYCAKYKWNFVDDWGQGTTVTVSS VH 2: QVQLVESGGGLVKPGGSLRLSCAASGFTFSDYYMTWIRQTPGKGLDWVSYISSSGTNKYNADSVKGRFTISRDNAKNSLYLQMNSLRAEDTAVYYCVRDPPWGMDVWGQGTTVTVSS VL: not shown |
